Our source for the stoichiometry N values is publication PMC9713717.

This experiment addresses T1, human NKCC1 (sodium-potassium-chloride transporter NKCC1, SLC12A2) (human), P55011.
T1 chain: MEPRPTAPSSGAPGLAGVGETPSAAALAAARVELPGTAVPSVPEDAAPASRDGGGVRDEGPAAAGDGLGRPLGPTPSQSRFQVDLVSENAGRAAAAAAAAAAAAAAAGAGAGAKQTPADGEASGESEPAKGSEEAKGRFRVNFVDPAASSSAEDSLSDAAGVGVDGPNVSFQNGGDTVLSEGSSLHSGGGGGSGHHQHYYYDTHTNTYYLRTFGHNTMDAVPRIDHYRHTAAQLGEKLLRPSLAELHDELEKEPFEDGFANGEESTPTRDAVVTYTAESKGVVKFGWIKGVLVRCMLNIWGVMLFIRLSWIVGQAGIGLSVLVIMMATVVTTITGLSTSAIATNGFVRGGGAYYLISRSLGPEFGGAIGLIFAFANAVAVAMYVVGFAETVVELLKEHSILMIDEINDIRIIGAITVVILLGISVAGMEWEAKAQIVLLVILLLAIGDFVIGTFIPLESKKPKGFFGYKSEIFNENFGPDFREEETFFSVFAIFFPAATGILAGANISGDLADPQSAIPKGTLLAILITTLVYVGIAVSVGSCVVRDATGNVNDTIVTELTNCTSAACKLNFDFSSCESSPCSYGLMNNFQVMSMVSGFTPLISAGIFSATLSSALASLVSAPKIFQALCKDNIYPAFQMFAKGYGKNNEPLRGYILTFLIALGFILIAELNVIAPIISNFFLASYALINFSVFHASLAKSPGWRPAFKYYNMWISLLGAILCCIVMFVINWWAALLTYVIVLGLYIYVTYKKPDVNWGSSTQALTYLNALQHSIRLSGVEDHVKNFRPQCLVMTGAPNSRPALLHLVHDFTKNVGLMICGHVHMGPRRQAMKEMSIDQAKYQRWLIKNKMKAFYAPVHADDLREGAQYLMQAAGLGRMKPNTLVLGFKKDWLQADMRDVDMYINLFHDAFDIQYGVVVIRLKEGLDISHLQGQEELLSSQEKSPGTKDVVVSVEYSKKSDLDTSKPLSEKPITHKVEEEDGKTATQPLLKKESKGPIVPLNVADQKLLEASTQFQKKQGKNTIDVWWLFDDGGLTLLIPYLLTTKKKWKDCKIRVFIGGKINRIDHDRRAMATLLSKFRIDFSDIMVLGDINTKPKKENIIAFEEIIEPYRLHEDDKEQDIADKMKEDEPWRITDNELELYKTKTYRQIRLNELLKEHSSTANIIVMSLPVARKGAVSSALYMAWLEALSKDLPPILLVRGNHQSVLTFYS
Nature of the experiment: cryo-EM structure. The note with it: remark: other sources report otherwise.

B1: human NKCC1 (sodium-potassium-chloride transporter NKCC1, SLC12A2), P55011 1-1212 (natural protein)
chain: MEPRPTAPSSGAPGLAGVGETPSAAALAAARVELPGTAVPSVPEDAAPASRDGGGVRDEGPAAAGDGLGRPLGPTPSQSRFQVDLVSENAGRAAAAAAAAAAAAAAAGAGAGAKQTPADGEASGESEPAKGSEEAKGRFRVNFVDPAASSSAEDSLSDAAGVGVDGPNVSFQNGGDTVLSEGSSLHSGGGGGSGHHQHYYYDTHTNTYYLRTFGHNTMDAVPRIDHYRHTAAQLGEKLLRPSLAELHDELEKEPFEDGFANGEESTPTRDAVVTYTAESKGVVKFGWIKGVLVRCMLNIWGVMLFIRLSWIVGQAGIGLSVLVIMMATVVTTITGLSTSAIATNGFVRGGGAYYLISRSLGPEFGGAIGLIFAFANAVAVAMYVVGFAETVVELLKEHSILMIDEINDIRIIGAITVVILLGISVAGMEWEAKAQIVLLVILLLAIGDFVIGTFIPLESKKPKGFFGYKSEIFNENFGPDFREEETFFSVFAIFFPAATGILAGANISGDLADPQSAIPKGTLLAILITTLVYVGIAVSVGSCVVRDATGNVNDTIVTELTNCTSAACKLNFDFSSCESSPCSYGLMNNFQVMSMVSGFTPLISAGIFSATLSSALASLVSAPKIFQALCKDNIYPAFQMFAKGYGKNNEPLRGYILTFLIALGFILIAELNVIAPIISNFFLASYALINFSVFHASLAKSPGWRPAFKYYNMWISLLGAILCCIVMFVINWWAALLTYVIVLGLYIYVTYKKPDVNWGSSTQALTYLNALQHSIRLSGVEDHVKNFRPQCLVMTGAPNSRPALLHLVHDFTKNVGLMICGHVHMGPRRQAMKEMSIDQAKYQRWLIKNKMKAFYAPVHADDLREGAQYLMQAAGLGRMKPNTLVLGFKKDWLQADMRDVDMYINLFHDAFDIQYGVVVIRLKEGLDISHLQGQEELLSSQEKSPGTKDVVVSVEYSKKSDLDTSKPLSEKPITHKVEEEDGKTATQPLLKKESKGPIVPLNVADQKLLEASTQFQKKQGKNTIDVWWLFDDGGLTLLIPYLLTTKKKWKDCKIRVFIGGKINRIDHDRRAMATLLSKFRIDFSDIMVLGDINTKPKKENIIAFEEIIEPYRLHEDDKEQDIADKMKEDEPWRITDNELELYKTKTYRQIRLNELLKEHSSTANIIVMSLPVARKGAVSSALYMAWLEALSKDLPPILLVRGNHQSVLTFYS
As to B1, the stoichiometry N (commonly a count of units in the complex or per binding partner) worked out at 2.
